Test results taken from US20060018915A1 (EPIMUNNE, published 2006).

Tests used:
Assay in all cases: HLA binding, candidate-epitope table; assay not described
[1] = target: T1, A*0301 (human, UniProt P61769 21-119)
T1 construct: MHC class I molecule; form in the assay not described; also called HLA-A*0301

[2] = target: T2, A*6801 (human, UniProt P61769 21-119, limits assumed)
T2 construct: MHC class I molecule; form in the assay not described; also called HLA-A*6801

[3] = target: T3, A*3101 (human, UniProt P61769 21-119, limits assumed)
T3 construct: MHC class I molecule; form in the assay not described; also called HLA-A*3101
T3 sequence (P61769 21-119 limits assumed, chain 2 of 2, other chains not shown): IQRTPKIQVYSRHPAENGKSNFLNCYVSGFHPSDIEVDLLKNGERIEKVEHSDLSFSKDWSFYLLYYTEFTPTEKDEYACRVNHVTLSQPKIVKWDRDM

[4] = target: T4, A*0101 (human, UniProt P61769 21-119)
T4 construct: MHC class I molecule; form in the assay not described; also called HLA-A*0101
T4 sequence (P61769 21-119 limits assumed, chain 2 of 2, other chains not shown): as above

T2 sequence (P61769 21-119 limits assumed, chain 2 of 2, other chains not shown): as above
T1 sequence (P61769 21-119 limits assumed, chain 2 of 2, other chains not shown): as above

| Binder | IC50 [1] | IC50 [2] | IC50 [3] | IC50 [4] |
| --- | --- | --- | --- | --- |
| VVFGILIKR (also called 1095.51) [Her2/neu.669] | 100 nM | 4 nM | 13 nM |  |
| GSDCTTIHYNY (also called 52.0136) [p53.226] |  |  |  | 68 nM |
